Assay results: PMC4678816, “Structural basis for suppression of hypernegative DNA supercoiling by E. coli topoisomerase I”

Columns and labels:
[1] = molecular target: E. coli topoisomerase I (EcTOP1) (Escherichia coli, UniProt P06612 1-865); experiment: X-ray crystallography; 1 mM ZnSO4, pH 6.0; 2.9 A; ssDNA 3' end bound by D5, D7, D8, D9 and R189; Footprinting: 40 mM Tris-HCl (pH not stated), 0.1 mg/ml BSA, 5 mM MgCl2, 37 C, 1 h; crystals: 0.125 M ammonium sulfate, 0.1 M MES pH 6.0, 1 mM ZnSO4, 19% PEG MME 5000, 24 C; settings: protein: recombinant; tags: N-terminal His6 removed with TEV protease; label: none in crystal; 3' overhang 9 nt on O29; 20 bp duplex
EcTOP1-G116S = EcTOP1-G116S (Escherichia coli, UniProt P06612 1-865, G116S); experiment: DNase I footprinting; 5 mM MgCl2; partial protection of double-stranded region, both strands; Footprinting: 40 mM Tris-HCl (pH not stated), 0.1 mg/ml BSA, 5 mM MgCl2, 37 C, 1 h; crystals: 0.125 M ammonium sulfate, 0.1 M MES pH 6.0, 1 mM ZnSO4, 19% PEG MME 5000, 24 C; settings: protein: recombinant; label: 5' 32P on G-strand or T-strand; duplex with 12-nt unpaired bubble

Row | Binder | binding result [1] | binding result (EcTOP1-G116S)
1 | O29-O20 partial duplex (mixed) DNA 1: GCTAAACCTGAAAGATTATGCGATTTGGG DNA 2: CATAATCTTTCAGGTTTAGC | binds | –
2 | DNA bubble substrate (G-strand/T-strand) (mixed) DNA 1: GCCCTGAAAGATTATGGAATGCGATTAGTTCAAGAGCGTGAGCG DNA 2: CGCTCACGCTCTTGAAGTAGAGGAAGGACATAATCTTTCAGGGC | – | binds
